The record followed here is WO2005092925A2.

Some targets named below: human FcγRIIc (human) (UniProt P31995); human FcRn (human) (UniProt P55899); human FcγRIIb (human) (UniProt P31994); human FcγRI (human) (UniProt P12314).
Common to all, as to assay: AlphaScreen
(Bead proximity is the source of the signal in Alpha formats.)

Test [1] concerns the target human V158 FcγRIIIa, extracellular region fused with GST (human) (UniProt P08637).
Test [2] deals with human FcγRIIa H131 (human) (UniProt P12318).
UniProt P12318, sequence (P12318 36-218 limits assumed): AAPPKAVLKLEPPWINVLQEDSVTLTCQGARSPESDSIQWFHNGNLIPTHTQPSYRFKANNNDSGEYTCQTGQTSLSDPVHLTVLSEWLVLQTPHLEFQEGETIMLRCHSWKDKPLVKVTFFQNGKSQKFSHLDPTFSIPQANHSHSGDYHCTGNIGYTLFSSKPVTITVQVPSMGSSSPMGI

UniProt P55899, sequence (P55899 24-297 limits assumed): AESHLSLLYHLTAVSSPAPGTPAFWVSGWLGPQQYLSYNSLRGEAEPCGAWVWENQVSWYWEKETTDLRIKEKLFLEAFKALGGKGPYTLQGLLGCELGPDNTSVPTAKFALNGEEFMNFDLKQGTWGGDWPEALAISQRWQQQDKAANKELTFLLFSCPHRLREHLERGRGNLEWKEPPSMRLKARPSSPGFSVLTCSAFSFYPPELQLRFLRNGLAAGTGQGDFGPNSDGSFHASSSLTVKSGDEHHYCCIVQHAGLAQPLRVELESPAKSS
UniProt P08637, sequence (P08637 17-208 F176V): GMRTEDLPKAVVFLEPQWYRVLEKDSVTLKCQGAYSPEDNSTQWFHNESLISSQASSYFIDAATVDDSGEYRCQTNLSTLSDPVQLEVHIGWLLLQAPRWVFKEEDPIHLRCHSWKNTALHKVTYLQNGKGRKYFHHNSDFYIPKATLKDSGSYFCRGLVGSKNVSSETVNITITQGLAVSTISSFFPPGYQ
UniProt P12314, sequence (P12314 16-288 limits assumed): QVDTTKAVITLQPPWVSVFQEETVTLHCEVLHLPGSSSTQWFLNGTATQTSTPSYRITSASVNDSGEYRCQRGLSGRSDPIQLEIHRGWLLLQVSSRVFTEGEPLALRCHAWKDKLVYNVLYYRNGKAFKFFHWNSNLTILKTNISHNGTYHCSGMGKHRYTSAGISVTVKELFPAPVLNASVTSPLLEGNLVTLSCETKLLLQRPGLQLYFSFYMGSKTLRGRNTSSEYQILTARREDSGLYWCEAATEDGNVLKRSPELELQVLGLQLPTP
UniProt P31995, sequence (P31995 43-217 limits assumed): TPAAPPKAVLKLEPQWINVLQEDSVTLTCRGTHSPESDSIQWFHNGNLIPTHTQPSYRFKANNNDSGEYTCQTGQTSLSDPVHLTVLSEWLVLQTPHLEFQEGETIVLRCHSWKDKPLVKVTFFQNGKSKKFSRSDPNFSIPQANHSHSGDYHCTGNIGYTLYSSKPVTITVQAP
UniProt P31994, sequence (P31994 43-217 limits assumed): as the sequence (P31995 43-217 limits assumed) above

Turning to Campath L235R (antibody), the Fold WT was 1.15 fold with human FcγRIIc (human); 0.62 fold in test [1]; 0.71 fold in test [2]; 0.53 fold with human FcRn (human); 1.93 fold with human FcγRIIb (human); 0.35 fold with human FcγRI (human).

Regarding Campath L235W (antibody), the Fold WT with human FcγRIIc (human) came to 0.5 fold; in test [1], 0.32 fold; in test [2], 0.9 fold; with human FcRn (human) it was 0.46 fold; with human FcγRIIb (human), 0.77 fold; with human FcγRI (human) it was 0.11 fold.

For the substance Campath P228G (antibody), the Fold WT with human FcγRIIc (human) amounted to 0.54 fold; in test [1] it was 0.98 fold; in test [2] it was 2.6 fold; with human FcRn (human), 1.77 fold; with human FcγRIIb (human), 0.96 fold; with human FcγRI (human) it was 1 fold.

Turning to Campath P228K (antibody), the Fold WT with human FcγRIIc (human) worked out at 1.13 fold; in test [1] it was 1.28 fold; in test [2], 1.31 fold; in the test with human FcRn (human), 1.55 fold; with human FcγRIIb (human), 1.14 fold; with human FcγRI (human), 1.91 fold.

For Campath P228Y (antibody), the Fold WT amounted to 1.61 fold with human FcγRIIc (human); 0.75 fold in test [1]; 1.68 fold in test [2]; 1.45 fold with human FcRn (human); 1.59 fold with human FcγRIIb (human); 1.15 fold with human FcγRI (human).

As to Campath P230G (antibody), the Fold WT was 0.75 fold in the test with human FcγRIIc (human); 0.48 fold in test [1]; 0.99 fold in test [2]; 1.16 fold with human FcRn (human); 1.13 fold with human FcγRIIb (human); 1.04 fold with human FcγRI (human).

For Campath P230Y (antibody), the Fold WT is 1.22 fold with human FcγRIIc (human); 0.56 fold in test [1]; 0.4 fold in test [2]; 0.65 fold in the test with human FcRn (human); 0.85 fold in the test with human FcγRIIb (human); 0.44 fold in the test with human FcγRI (human).

Campath P232E (antibody): the Fold WT in the test with human FcγRIIc (human) stood at 0.99 fold; in test [1], 1.51 fold; in test [2] it was 0.8 fold; with human FcRn (human), 0.76 fold; with human FcγRIIb (human), 1.59 fold; in the test with human FcγRI (human), 2.97 fold.

Take Campath P232K (antibody): the Fold WT in the test with human FcγRIIc (human) came out at 0.61 fold; in test [1] it was 0.77 fold; in test [2] it was 0.87 fold; with human FcRn (human), 1.56 fold; in the test with human FcγRIIb (human), 0.85 fold; with human FcγRI (human), 0.7 fold.

As to Campath P232Y (antibody), the Fold WT with human FcγRIIc (human) came out at 0.96 fold; in test [1], 0.99 fold; in test [2], 1.51 fold; in the test with human FcRn (human), 0.68 fold; with human FcγRIIb (human), 1.49 fold; with human FcγRI (human), 1.91 fold.
